From patent US20250084178A1 (ARCUS BIOSCIENCES, published 2025)

T1: human CD39 expressed on the cell surface (human, UniProt P49961 1-510)
T1 sequence: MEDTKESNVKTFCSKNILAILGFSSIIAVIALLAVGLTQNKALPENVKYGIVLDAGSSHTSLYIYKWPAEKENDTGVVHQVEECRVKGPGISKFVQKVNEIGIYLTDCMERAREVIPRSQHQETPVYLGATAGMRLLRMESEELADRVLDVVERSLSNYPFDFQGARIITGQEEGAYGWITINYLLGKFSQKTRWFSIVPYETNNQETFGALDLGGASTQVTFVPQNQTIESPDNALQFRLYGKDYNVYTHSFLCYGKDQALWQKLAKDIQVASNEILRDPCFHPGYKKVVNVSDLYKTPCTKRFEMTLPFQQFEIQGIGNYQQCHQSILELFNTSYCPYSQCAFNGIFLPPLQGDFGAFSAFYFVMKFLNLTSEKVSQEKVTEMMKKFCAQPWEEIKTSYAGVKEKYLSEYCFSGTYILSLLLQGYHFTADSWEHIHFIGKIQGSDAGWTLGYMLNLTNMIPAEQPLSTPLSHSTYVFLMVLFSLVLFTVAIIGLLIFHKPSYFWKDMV

T2: soluble His-tagged human CD39 ECD protein (human, UniProt P49961 38-478)
T2 construct: also called human CD39 ECD His-tagged antigen; Sino Biological Cat. No. 16020-H08B
T2 sequence: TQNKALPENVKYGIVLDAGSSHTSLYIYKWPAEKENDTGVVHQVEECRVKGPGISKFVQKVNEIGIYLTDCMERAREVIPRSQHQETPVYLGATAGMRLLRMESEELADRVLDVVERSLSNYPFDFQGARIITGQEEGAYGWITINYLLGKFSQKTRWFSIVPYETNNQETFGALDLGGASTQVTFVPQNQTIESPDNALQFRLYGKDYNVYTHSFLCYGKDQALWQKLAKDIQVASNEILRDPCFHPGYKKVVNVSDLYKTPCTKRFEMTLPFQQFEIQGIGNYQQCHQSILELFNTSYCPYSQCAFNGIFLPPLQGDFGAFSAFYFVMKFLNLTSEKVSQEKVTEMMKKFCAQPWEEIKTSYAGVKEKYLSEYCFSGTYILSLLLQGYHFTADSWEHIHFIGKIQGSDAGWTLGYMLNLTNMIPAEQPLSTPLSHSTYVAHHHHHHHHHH

T3: recombinant human CD39 (soluble) (human, UniProt P49961 38-478, limits assumed)
T3 sequence (looked up): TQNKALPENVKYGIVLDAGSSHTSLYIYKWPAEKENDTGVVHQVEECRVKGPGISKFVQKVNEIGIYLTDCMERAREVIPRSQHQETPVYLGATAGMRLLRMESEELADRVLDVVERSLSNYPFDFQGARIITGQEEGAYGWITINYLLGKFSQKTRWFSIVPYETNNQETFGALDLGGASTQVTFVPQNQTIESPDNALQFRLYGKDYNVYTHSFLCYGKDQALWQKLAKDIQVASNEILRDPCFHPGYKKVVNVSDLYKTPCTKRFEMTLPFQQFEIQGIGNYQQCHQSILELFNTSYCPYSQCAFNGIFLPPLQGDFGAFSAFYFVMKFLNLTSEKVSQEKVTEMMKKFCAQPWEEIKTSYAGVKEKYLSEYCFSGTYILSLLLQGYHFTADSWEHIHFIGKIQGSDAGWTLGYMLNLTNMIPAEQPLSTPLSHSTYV

T4: cynomolgus monkey CD39 expressed on HEK-293 cells (cynomolgus monkey, UniProt P49961 5-510 (human entry))
T4 construct: also called Cynomolgus Monkey CD39-HEK293
T4 chain: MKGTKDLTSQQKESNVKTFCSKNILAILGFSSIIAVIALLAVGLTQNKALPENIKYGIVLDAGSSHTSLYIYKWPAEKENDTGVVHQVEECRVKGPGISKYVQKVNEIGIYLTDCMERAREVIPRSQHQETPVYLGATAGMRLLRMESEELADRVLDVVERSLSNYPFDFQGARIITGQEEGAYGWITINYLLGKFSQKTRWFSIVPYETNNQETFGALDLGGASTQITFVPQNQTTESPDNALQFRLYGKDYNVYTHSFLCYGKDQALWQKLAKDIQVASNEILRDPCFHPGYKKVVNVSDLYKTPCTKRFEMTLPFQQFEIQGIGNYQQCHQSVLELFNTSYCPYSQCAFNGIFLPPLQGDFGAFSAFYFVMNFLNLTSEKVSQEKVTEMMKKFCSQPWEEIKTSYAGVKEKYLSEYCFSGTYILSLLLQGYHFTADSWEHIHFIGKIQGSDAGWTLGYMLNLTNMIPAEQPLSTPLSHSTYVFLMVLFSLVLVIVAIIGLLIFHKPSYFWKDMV

B1: hu39.5_IGG1.AA (antibody, human IgG1, kappa, L234A L235A)
heavy: not shown
light: DTVLTQSPASLAVSPGQRATITCRASEGVKSYMHWYQQKPGQPPKLLIYKASNLASGVPARFSGSGSGTDFTLTINPVEADDTANYYCQQSWNDPTFGQGTKLEIKRTVAAPSVFIFPPSDEQLKSGTASVVCLLNNFYPREAKVQWKVDNALQSGNSQESVTEQDSKDSTYSLSSTLTLSKADYEKHKVYACEVTHQGLSSPVTKSFNRGEC
notes: humanized variant of antibody 39, human IgG1 L234A/L235A
B2: hu31.4_IGG1.AA (antibody, human IgG1, kappa, L234A L235A)
heavy: not shown
light: DIVLTQSPALAVSPGQRATITCRTQQTVDHYGTTYMNWYQQKPGQPPKLLIYLASSLASGVPARFSGSGSGTDFTLTINPVEADDTANYYCQQSRNLWTFGGGTKVEIKRTVAAPSVFIFPPSDEQLKSGTASVVCLLNNFYPREAKVQWKVDNALQSGNSQESVTEQDSKDSTYSLSSTLTLSKADYEKHKVYACEVTHQGLSSPVTKSFNRGEC
notes: humanized variant of antibody 31, human IgG1 L234A/L235A
B3: hu39.5_IGG4.P (antibody, human IgG4 S228P, kappa)
heavy: not shown
light: B1 light
notes: humanized variant of antibody 39 (VH3 + VL1 with I2T), IgG4 (S228P)

Legend:
[1] = molecular target: T1, human CD39 expressed on the cell surface; test: cell-based or functional assay
[2] = molecular target: T1, human CD39 expressed on the cell surface; test: flow cytometry on human PBMCs gated on CD14+ monocytes, 0 uM ATP (N = 8)
[3] = molecular target: T2, soluble His-tagged human CD39 ECD …; test: SPR, monovalent affinity mode; average over seven surface densities
[4] = molecular target: T3, recombinant human CD39 (soluble); test: cell-based or functional assay
[5] = molecular target: T1, human CD39 expressed on the cell surface; test: flow cytometry on human PBMCs gated on CD19+ B cells, 0 uM ATP (N = 8)
[6] = molecular target: T1, human CD39 expressed on the cell surface; test: cell-based or functional assay; remark: listed apart in the source
[7] = molecular target: T2, soluble His-tagged human CD39 ECD …; test: SPR, bivalent avidity mode (CD39 ECD immobilized, antibody analyte); Rmax 420.45 RU surface
[8] = molecular target: T1, human CD39 expressed on the cell surface; test: cell-based or functional assay; remark: listed apart in the source
[9] = molecular target: T2, soluble His-tagged human CD39 ECD …; test: SPR, bivalent avidity mode; average over six surface densities; average of different density surfaces; CD39 ECD immobilized
[10] = molecular target: T2, soluble His-tagged human CD39 ECD …; test: SPR, bivalent avidity mode (CD39 ECD immobilized, antibody analyte); Rmax 524.16 RU surface
[11] = molecular target: T1, human CD39 expressed on the cell surface; test: flow cytometry on human PBMCs gated on CD19+ B cells, 400 uM ATP (N = 6)
[12] = molecular target: T1, human CD39 expressed on the cell surface; test: flow cytometry on human PBMCs gated on CD19+ B cells, one donor, 0 µM ATP
[13] = molecular target: T1, human CD39 expressed on the cell surface; test: flow cytometry on human PBMCs gated on CD19+ B cells, one donor, 400 µM ATP
[14] = molecular target: T1, human CD39 expressed on the cell surface; test: flow cytometry on human PBMCs gated on CD14+ monocytes, 400 uM ATP (N = 6)
[15] = molecular target: T2, soluble His-tagged human CD39 ECD …; test: SPR, bivalent avidity mode; average over six surface densities
[16] = molecular target: T1, human CD39 expressed on the cell surface; test: competition flow cytometry on MOLP-8 cells, competitor hu39.1_IGG4.P-AF647
[17] = molecular target: T2, soluble His-tagged human CD39 ECD …; test: SPR, bivalent avidity mode (CD39 ECD immobilized, antibody analyte); Rmax 896.01 RU surface
[18] = molecular target: T1, human CD39 expressed on the cell surface; test: flow cytometry on purified human CD14+ monocytes, 0 uM ATP
[19] = molecular target: T4, cynomolgus monkey CD39 expressed on …; test: FACS on HEK293 cells overexpressing cynomolgus CD39
[20] = molecular target: T1, human CD39 expressed on the cell surface; test: cell-based or functional assay; remark: listed apart in the source
[21] = molecular target: T2, soluble His-tagged human CD39 ECD …; test: SPR (Biacore 8K), antibody captured via anti-human Fc, CD39 ECD analyte
[22] = molecular target: T1, human CD39 expressed on the cell surface; test: cell-based or functional assay; remark: listed apart in the source
[23] = molecular target: T1, human CD39 expressed on the cell surface; test: FACS on CHO-K1 cells overexpressing human CD39
[24] = molecular target: T1, human CD39 expressed on the cell surface; test: flow cytometry on purified human CD14+ monocytes, 400 uM ATP

Binder	IC50, CD39 enzymatic inhibition on THP-1 cells, 20 uM ATP [1] [nM]	Max Inhibition (%), THP-1 cells [1] [%]	Kd [3] [nM]	IC50, inhibition of recombinant CD39 enzymatic activity, 20 uM ATP [4] [nM]	Max Inhibition (%), recombinant CD39, 20 uM ATP [4] [%]	EC50 [5] [nM]	IC50, CD39 enzymatic inhibition on human monocytes, 20 uM ATP [6] [nM]	Max Inhibition (%), human monocytes, 20 uM ATP [6] [%]	IC50, CD39 enzymatic inhibition on human monocytes, 400 uM ATP [8] [nM]	Max Inhibition (%), human monocytes, 400 uM ATP [8] [%]	EC50 [11] [nM]	EC50 (read off the curve) [12] [nM]	EC50 (read off the curve) [13] [nM]	other results
B1	0.075	55	0.24	0.19	80	0.2	0.1	69	0.083	62	0.3	~0.2	~0.2	EC50 [2]: 0.3 nM; Kd [7]: 0.00998 nM; Kd [9]: 0.01 nM; Kd [10]: 0.00656 nM; EC50 [14]: 0.5 nM
B2	0.53	62	0.19	0.3	86	1	1	69	0.7	63	1	~2	~2	Kd [15]: 0.3 nM; Max Competition [16]: -22%; Kd [17]: 0.105 nM
B3	0.062	83	–	–	–	–	0.15	72	0.2	60	–	–	–	EC50 [18]: 3.9 nM; EC50 [19]: 0.088 nM; IC50, CD39 enzymatic inhibition on SK-MEL-5 cells, 20 uM ATP [20]: 0.14 nM; Max Inhibition (%), SK-MEL-5 cells [20]: 66%; Kd [21]: 0.121 nM; Human THP-1 CD39 inhibition IC50 [22]: 0.1 nM; EC50 [23]: 0.44 nM; EC50 [24]: 10 nM
